Data as given in patent publication US20240052042A1 (Novartis, published 2024).

T1: rNPR1-ANP complex (rat, UniProt P01160 124-151 (human entry), limits assumed)
T1 construct: rNPR1 antigen in the presence of ANP; also called rNPR1 + 100 nM ANP
T1 sequence: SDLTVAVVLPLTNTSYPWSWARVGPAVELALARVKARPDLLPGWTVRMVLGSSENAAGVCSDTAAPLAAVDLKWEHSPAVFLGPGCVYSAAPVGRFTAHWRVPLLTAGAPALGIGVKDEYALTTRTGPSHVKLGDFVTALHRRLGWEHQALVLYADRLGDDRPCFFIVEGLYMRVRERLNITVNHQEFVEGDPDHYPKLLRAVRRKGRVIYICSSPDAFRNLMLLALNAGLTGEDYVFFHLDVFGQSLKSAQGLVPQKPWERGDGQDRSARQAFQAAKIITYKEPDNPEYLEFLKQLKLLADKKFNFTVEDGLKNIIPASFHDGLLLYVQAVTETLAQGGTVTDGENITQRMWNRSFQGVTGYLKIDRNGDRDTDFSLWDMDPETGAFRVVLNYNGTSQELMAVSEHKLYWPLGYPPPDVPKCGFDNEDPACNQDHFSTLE
T1 sequence (peptide): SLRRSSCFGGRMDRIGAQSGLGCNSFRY

T2: hNPR1-ANP complex (human, UniProt P01160 124-151, limits assumed)
T2 construct: hNPR1 antigen in the presence of ANP; also called hNPR1 + 100 nM ANP
T2 sequence: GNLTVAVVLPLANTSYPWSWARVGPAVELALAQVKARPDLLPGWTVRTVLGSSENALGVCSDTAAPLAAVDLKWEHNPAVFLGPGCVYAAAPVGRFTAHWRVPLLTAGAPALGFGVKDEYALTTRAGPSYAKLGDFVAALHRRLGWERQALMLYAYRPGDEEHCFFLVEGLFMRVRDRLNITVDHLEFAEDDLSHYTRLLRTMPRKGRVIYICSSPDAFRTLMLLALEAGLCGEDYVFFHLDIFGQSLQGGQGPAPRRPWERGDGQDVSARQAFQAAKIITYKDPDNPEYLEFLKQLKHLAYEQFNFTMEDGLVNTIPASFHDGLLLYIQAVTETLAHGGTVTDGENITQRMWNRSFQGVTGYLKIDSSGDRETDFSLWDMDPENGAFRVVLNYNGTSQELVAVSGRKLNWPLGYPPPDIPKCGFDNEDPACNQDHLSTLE
T2 sequence (peptide): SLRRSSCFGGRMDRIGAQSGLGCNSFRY

T3: human Natriuretic Peptide Receptor 1 (hNPR1) (human, UniProt P16066 33-473, limits assumed)
T3 construct: pannings used NPR1-hFc; also called NPR1-hFc
T3 sequence: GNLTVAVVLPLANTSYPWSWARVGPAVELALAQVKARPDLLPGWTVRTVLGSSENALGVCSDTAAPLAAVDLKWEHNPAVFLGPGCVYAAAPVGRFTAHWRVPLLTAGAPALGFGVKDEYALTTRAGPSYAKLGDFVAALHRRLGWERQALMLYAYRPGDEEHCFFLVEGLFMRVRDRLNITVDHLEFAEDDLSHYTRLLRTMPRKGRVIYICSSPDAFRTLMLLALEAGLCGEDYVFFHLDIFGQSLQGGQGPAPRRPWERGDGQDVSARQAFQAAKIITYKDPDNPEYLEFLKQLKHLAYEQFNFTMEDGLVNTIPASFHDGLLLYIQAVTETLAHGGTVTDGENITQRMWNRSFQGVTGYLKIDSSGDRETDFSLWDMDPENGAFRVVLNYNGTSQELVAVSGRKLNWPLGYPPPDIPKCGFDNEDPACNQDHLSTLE

T4: rat NPR1 (rNPR1) (rat, UniProt P18910 29-469, limits assumed)
T4 construct: Soluble antigen
T4 sequence: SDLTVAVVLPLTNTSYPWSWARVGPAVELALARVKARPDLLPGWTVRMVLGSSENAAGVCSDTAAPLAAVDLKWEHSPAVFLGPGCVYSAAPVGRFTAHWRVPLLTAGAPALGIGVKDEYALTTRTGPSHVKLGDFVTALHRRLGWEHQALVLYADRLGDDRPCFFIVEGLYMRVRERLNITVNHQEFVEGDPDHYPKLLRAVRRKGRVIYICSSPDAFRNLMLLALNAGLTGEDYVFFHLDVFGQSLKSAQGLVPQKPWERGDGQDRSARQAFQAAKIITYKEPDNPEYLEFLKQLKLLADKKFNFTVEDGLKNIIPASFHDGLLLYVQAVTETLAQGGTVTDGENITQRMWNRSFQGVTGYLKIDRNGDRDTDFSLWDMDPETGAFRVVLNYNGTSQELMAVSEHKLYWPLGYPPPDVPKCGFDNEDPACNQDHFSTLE


What was measured:
rNPR1-ANP complex [1] = biological target: T1, rNPR1-ANP complex; assay: SET, FabCys
hNPR1-ANP complex [2] = biological target: T2, hNPR1-ANP complex; assay: SET, FabCys
[3] = biological target: T3, human Natriuretic Peptide Receptor 1 …; assay: SET, FabCys
rat NPR1 (rNPR1) [4] = biological target: T4, rat NPR1 (rNPR1); assay: SET, FabCys
rNPR1-ANP complex [5] = biological target: T1, rNPR1-ANP complex; assay: Octet, FabCys
hNPR1-ANP complex [6] = biological target: T2, hNPR1-ANP complex; assay: Octet, FabCys
rNPR1-ANP complex [7] = biological target: T1, rNPR1-ANP complex; assay: FabCys affinity determination
hNPR1-ANP complex [8] = biological target: T2, hNPR1-ANP complex; assay: FabCys affinity determination
[9] = biological target: T3, human Natriuretic Peptide Receptor 1 …; assay: FabCys affinity determination
rat NPR1 (rNPR1) [10] = biological target: T4, rat NPR1 (rNPR1); assay: FabCys affinity determination

| Binder | Kd (rNPR1-ANP complex [1]) | Kd (hNPR1-ANP complex [2]) | Kd [3] | Kd (rat NPR1 (rNPR1) [4]) | Kd (rNPR1-ANP complex [5]) | Kd (hNPR1-ANP complex [6]) | Kd (rNPR1-ANP complex [7]) | Kd (hNPR1-ANP complex [8]) | Kd [9] | Kd (rat NPR1 (rNPR1) [10]) |
| --- | --- | --- | --- | --- | --- | --- | --- | --- | --- | --- |
| ZZ12 (FabCys format) (Fab, V domains shown, Monovalent FabCys) VH: EVQLVESGGGLVQPGGSLRLSCAASGFSFSKYYLNWVRQAPGKGLEWVASIHQQAHEKKYVESVKGRFTISRDNAKNSLYLQMNSLRAEDTAVYYCARSLRRRSTEHAGFDVWGQGTLVTVSS VL: DIQMTQSPSSLSASVGDRVTITCRASQGISNYLAWYQQKPGKVPKLLIYAASTLQSGVPSRFSGSGSGTDFTLTISSLQPEDVATYYCQQADKFPYTFGQGTKVEIK | 1.4 nM | 0.32 nM | 6.7 nM | 2.1 nM | 0.1 nM | 0.04 nM |  |  |  |  |
| YY02 (FabCys format) (Fab, V domains shown, Monovalent FabCys) VH: EVQLVESGGGLVKPGGSLRLSCAASGFTFSSYSMNWVRQAPGKGLEWVSSISSSSSYIYYADSVKGRFTISRDNAKNSLYLQMNSLRAEDTAVYYCARSGYRGVYGFDYWGQGTLVTVSS VL: DIQMTQSPSSVSASVGDRVTITCRASQGISSWLAWYQQKPGKAPKLLIYAASSLQSGVPSRFSGSGSGTDFTLTISSLQPEDFATYYCQQYYHSPLTFGQGTKVEIK |  |  |  |  |  |  | 4.4 nM | 1.1 nM | 45 nM | 280 nM |
